Experiments:
[1] = test system: patients with moderate to severe plaque psoriasis; experiment: Safety outcomes (AEs, SAEs) in the open-label study; type: in vivo, human; details: through week 24
Protocol: This was a single center, prospective, open-label study to evaluate the effectiveness and safety of tildrakizumab (ILUMYA® [tildrakizumab-asmn] in combination with halcinonide ointment (HALOG® ointment [Halcinonide Ointment, USP, 0.1%) for treating moderate to severe plaque psoriasis. The study protocol was approved by an institutional review board and the study was conducted in accordance with ethical guidelines. Written informed consent was obtained by all patients before initiating treatment.
All enrolled patients received tildrakizumab (100 mg) by subcutaneous injection at weeks 0, 4, and 16. Patients with BSA>3% at week 16 applied halcinonide ointment twice daily for 4 weeks and then continued without halcinonide for an additional 4 weeks of follow up. Patients with BSA≤3% at week 16 were also followed up to week 24. All patients were evaluated for safety and efficacy at weeks 4, 8, 16, 20 and 24.
The primary endpoint of the study was the proportion of patients with BSA≤3% at week 16. […] Improvements in PGA, the composite PGA×BSA measure, and DLQI were also evaluated as secondary endpoints. […]
A cohort of approximately 25 participants was planned for enrollment in the study. […] AEs and SAEs were summarized descriptively by frequency and severity, and their causal relationship to treatment was assessed.

[2] = test system: moderate to severe plaque psoriasis; experiment: Prospective, open-label study of effectiveness of tildrakizumab plus topical halcinonide ointment; type: in vivo, human; details: for improvement of mean DLQI from baseline: patients with BSA≤3% at week 16, no halcinonide ointment
[3] = patients with BSA>3% at week 16, week 16
[4] = patients with BSA≤3% at week 16, no halcinonide, week 16

B1: tildrakizumab (antibody, chains of the INN, looked up, V domains shown)
VH: QVQLVQSGAEVKKPGASVKVSCKASGYIFITYWMTWVRQAPGQGLEWMGQIFPASGSADYNEKFEGRVTMTTDTSTSTAYMELRSLRSDDTAVYYCARGGGGFAYWGQGTLVTVSS
VL: DIQMTQSPSSLSASVGDRVTITCRTSENIYSYLAWYQQKPGKAPKLLIYNAKTLAEGVPSRFSGSGSGTDFTLTISSLQPEDFATYYCQHHYGIPFTFGQGTKVEIK
serious adverse events (SAEs) [1]: no SAEs | tolerability [1]: well tolerated | decrease of mean DLQI from baseline ([2]; all patients, week 16): 68% | proportion of patients achieving PASI 75 ([2]; all patients, week 16): 60.9% | proportion of patients achieving PASI 90 ([2]; all patients, week 16): 17.4% | proportion of patients achieving PASI 100 (complete resolution) ([2]; all patients, week 16): 4.3% | proportion of patients with BSA≤1% ([2]; all patients, week 16): 21.7% | reduction in mean BSA involvement from baseline ([2]; all patients, week 16): 74% | proportion of patients reporting a DLQI score of 0 or 1 ([2]; all patients, week 16 (baseline 4.0%)): 39.2% | mean BSA involvement ([2]; all patients, week 16 (baseline 19.1%)): 5.0% | proportion of patients with BSA≤3% ([2]; all patients, week 16, tildrakizumab 100 mg sc at weeks 0, 4, 16): 52.2% | BSA≤3% response at weeks 20 and 24 ([2]; most patients with BSA≤3% at week 16 (no halcinonide use) who completed the study): maintained a BSA≤3% | reduction from baseline in mean BSA [2, 3]: 55% | reduction from baseline in mean PGA [2, 3]: 29% | reduction from baseline in mean PGA×BSA [2, 3]: 64% | reduction in mean DLQI from baseline [2, 3]: 50% | improvement of mean DLQI from baseline ([2]; week 16): 84% | improvement of mean DLQI from baseline ([2]; weeks 20 and 24): remained at similar levels | BSA, PGA and PGA×BSA responses ([2]; patients with BSA≤3% at week 16, no halcinonide, through week 24): maintained | reduction of mean BSA from baseline [2, 4]: 89% | reduction of mean PGA from baseline [2, 4]: 60% | reduction of mean PGA×BSA from baseline [2, 4]: 95% | number of patients with BSA>3% ([2]; week 16): 11 patients | number of patients with BSA≤3% ([2]; week 16): 12 patients
